No end group written: not given here.
Target: T1, p53 wt-FL (human, UniProt P04637 1-393)
T1 construct: mature; Full-length protein made by in vitro transcription/translation, used unpurified in the IVT mixture; also called wild-type full length p53; IVT synthesized p53 wt-FL
Assay: ELISA conformation 1: biotinylated peptide on streptavidin plate, IVT p53 wt-FL added, detected with DO-1, Bp53 10.1 or CM1 and HRP secondary; ctrl = no p53 extract

T1 sequence (P04637 whole entry): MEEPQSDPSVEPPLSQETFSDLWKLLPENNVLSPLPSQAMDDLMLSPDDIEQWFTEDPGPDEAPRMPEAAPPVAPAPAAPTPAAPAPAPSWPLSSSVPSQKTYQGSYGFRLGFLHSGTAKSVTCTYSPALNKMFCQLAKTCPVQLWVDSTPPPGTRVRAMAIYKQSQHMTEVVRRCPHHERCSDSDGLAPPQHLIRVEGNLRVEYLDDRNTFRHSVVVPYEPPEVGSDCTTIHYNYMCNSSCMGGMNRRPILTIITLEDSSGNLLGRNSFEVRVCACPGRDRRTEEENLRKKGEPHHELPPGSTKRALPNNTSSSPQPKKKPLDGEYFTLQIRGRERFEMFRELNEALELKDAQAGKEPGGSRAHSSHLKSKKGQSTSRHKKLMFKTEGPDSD

| Binder | binding result |
| --- | --- |
| MPHLMAC (also: biotin at N- or C-terminus in ELISA forms, also called peptide MPH) [Pap-MPH] | no binding |
| SPTTNH (also: biotin at N- or C-terminus in ELISA forms only, also called peptide SPT; Peptide-P1) [Pap-SPT] | no binding |
